Measured values as given in patent US20240358849A1 (SUZHOU FUSE BIOSCIENCES, published 2024).

T1: IL-2hex, mutant human IL-2 (deltaA1/T3A/F42A/Y45A/L72G/C125S) (human, UniProt P60568 22-153)
T1 chain: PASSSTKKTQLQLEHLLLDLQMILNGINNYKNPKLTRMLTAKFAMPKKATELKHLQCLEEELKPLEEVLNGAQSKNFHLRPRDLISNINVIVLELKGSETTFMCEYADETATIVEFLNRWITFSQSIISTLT


What was measured:
[1] = biological target: T1, IL-2hex, mutant human IL-2 …; assay: BLI per 6.1.3; column head IL-2 KD
[2] = biological target: T2, human Fibroblast Activation Protein (FAP), soluble antigen (human, UniProt Q12884 26-760, biotinylated when immobilized on streptavidin sensors); assay: BLI per 6.1.3
T2 construct: also called hFAP; biotinylated FAP

[3] = biological target: T1, IL-2hex, mutant human IL-2 …; assay: Affinity (nM), Table 13B
[4] = biological target: T2, human Fibroblast Activation Protein …; assay: Affinity (nM), Table 13B
[5] = biological target: T1, IL-2hex, mutant human IL-2 …; assay: cell-based or functional assay
[6] = biological target: T3, human FAP expressed on cells (HEK 293T-hFAP-E5; ExpiCHO-hFAP) (human, UniProt Q12884 1-760); assay: cell-based or functional assay
[7] = biological target: T3, human FAP expressed on cells (HEK …); assay: flow cytometry, 1 µg/mL antibody
[8] = biological target: T2, human Fibroblast Activation Protein …; assay: BLI, small-scale crude lysate

| Kd [1] | Kd [2] | Kd [3] | Kd [4] | EC50 of HEK-Blue IL2 assay (pM) with HEK 293T; variant as masking moiety of a configuration 3 immunoconjugate [5] | EC50 of HEK-Blue IL2 assay (pM) with HEK 293T-hFAP-E5; variant as masking moiety of a configuration 3 immunoconjugate [6] | binding result [7] | Kd [8] | Binder |
| --- | --- | --- | --- | --- | --- | --- | --- | --- |
| 528 nM | 2.31 nM | 1100 nM | 1.8 nM | 9260 pM | 78 pM | – | – | D029 HV2LV1 (bispecific antibody, V domains shown, also called Rev1/S55L:S32F) VH: EVQLVESGGGLVQPGGSLRLSCAASGFTFTWFFMSWVRQAPGKGLEWVSWIGPSGLYTDYADSVKGRFTISRDNSKNTLYLQMNSLRAEDTAVYYCARSQYGRYYSPDYYFDYWGQGTLVTVSS VL: DIQMTQSPSSLSASVGDRVTITCRASQALGFYLNWYQQKPGKAPKLLIYAASSLSSGVPSRFSGSGSGTDFTLTISSLQPEDFATYYCQQGRTPPLTFGQGTKVEIKR |
| – | – | – | – | – | – | binds | – | antibody D003 (antibody, V domains shown) VH: EVQLVESGGGLVQPGGSLRLSCAASGFTFYTYIMSWVRQAPGKGLEWVSSIGPSYGDTIYADSVKGRFTISRDNSKNTLYLQMNSLRAEDTAVYYCARTISYSQYAYGYSFDYWGQGTLVTVSS VL: DIQMTQSPSSLSASVGDRVTITCRASQSISSYLNWYQQKPGKAPKLLIYAASSLQSGVPSRFSGSGSGTDFTLTISSLQPEDFATYYCQQTRSYLPTFGQGTKVEIKR |
| – | – | – | – | – | – | binds | – | two-in-one antibody D049 (bispecific antibody, V domains shown) VH: EVQLVESGGGLVQPGGSLRLSCAASGFTFFSYWMSWVRQAPGKGLEWVSTISPYDSSTAYADSVKGRFTISRDNSKNTLYLQMNSLRAEDTAVYYCARLLYGTWFDYWGQGTLVTVSS VL: DIQMTQSPSSLSASVGDRVTITCRASQIVRTYLNWYQQKPGKAPKLLIYAASSLQSGVPSRFSGSGSGTDFTLTISSLQPEDFATYYCQQGAQLQPTFGQGTKVEIKR |
| 419 nM | 1.98 nM | 419 nM | 2 nM | 6060 pM | 27 pM | – | – | D029 HV2LV2 (bispecific antibody, V domains shown, also called Rev1-Q27G:P94Y:L96F/S55L:S32F) VH: EVQLVESGGGLVQPGGSLRLSCAASGFTFTWFFMSWVRQAPGKGLEWVSWIGPSGLYTDYADSVKGRFTISRDNSKNTLYLQMNSLRAEDTAVYYCARSQYGRYYSPDYYFDYWGQGTLVTVSS VL: DIQMTQSPSSLSASVGDRVTITCRASGALGFYLNWYQQKPGKAPKLLIYAASSLSSGVPSRFSGSGSGTDFTLTISSLQPEDFATYYCQQGRTYPFTFGQGTKVEIKR |
| 1100 nM | 1.8 nM | 528 nM | 2.3 nM | 4120 pM | 208 pM | – | – | D029 HV3LV4 (bispecific antibody, V domains shown, also called D029-Rev1:Q27G:P94Y/S55L:T30R:S32F) VH: EVQLVESGGGLVQPGGSLRLSCAASGFTFRWFFMSWVRQAPGKGLEWVSWIGPSGLYTDYADSVKGRFTISRDNSKNTLYLQMNSLRAEDTAVYYCARSQYGRYYSPDYYFDYWGQGTLVTVSS VL: DIQMTQSPSSLSASVGDRVTITCRASGALGFYLNWYQQKPGKAPKLLIYAASSLSSGVPSRFSGSGSGTDFTLTISSLQPEDFATYYCQQGRTYPLTFGQGTKVEIKR |
| 331 nM | 3.58 nM | 100 nM | 100 nM | 5330 pM | 186 pM | – | – | D029 HV3LV2 (bispecific antibody, V domains shown, also called D029L-Rev1:Q27G:P94Y:L96F/S55L:T30R:S32F) VH: EVQLVESGGGLVQPGGSLRLSCAASGFTFRWFFMSWVRQAPGKGLEWVSWIGPSGLYTDYADSVKGRFTISRDNSKNTLYLQMNSLRAEDTAVYYCARSQYGRYYSPDYYFDYWGQGTLVTVSS VL: DIQMTQSPSSLSASVGDRVTITCRASGALGFYLNWYQQKPGKAPKLLIYAASSLSSGVPSRFSGSGSGTDFTLTISSLQPEDFATYYCQQGRTYPFTFGQGTKVEIKR |
| – | – | – | – | – | – | – | ~100 nM | D029 T30R:S55L/LV1 (bispecific antibody, V domains shown, also called Rev1/S55L:T30R) VH: EVQLVESGGGLVQPGGSLRLSCAASGFTFRWSFMSWVRQAPGKGLEWVSWIGPSGLYTDYADSVKGRFTISRDNSKNTLYLQMNSLRAEDTAVYYCARSQYGRYYSPDYYFDYWGQGTLVTVSS VL: DIQMTQSPSSLSASVGDRVTITCRASQALGFYLNWYQQKPGKAPKLLIYAASSLSSGVPSRFSGSGSGTDFTLTISSLQPEDFATYYCQQGRTPPLTFGQGTKVEIKR |
| – | – | – | – | – | – | – | ~100 nM | D029-HV1LV4 (bispecific antibody, V domains shown, also called Rev1:Q27G:P94Y/S55L; D029HVILV4 (so in the source)) VH: EVQLVESGGGLVQPGGSLRLSCAASGFTFTWSFMSWVRQAPGKGLEWVSWIGPSGLYTDYADSVKGRFTISRDNSKNTLYLQMNSLRAEDTAVYYCARSQYGRYYSPDYYFDYWGQGTLVTVSS VL: DIQMTQSPSSLSASVGDRVTITCRASGALGFYLNWYQQKPGKAPKLLIYAASSLSSGVPSRFSGSGSGTDFTLTISSLQPEDFATYYCQQGRTYPLTFGQGTKVEIKR |
| 100 nM | > 100 nM | 331 nM | 3.6 nM | 5630 pM | 41 pM | – | – | D029 HV5LV1 (bispecific antibody, V domains shown, also called Rev1/S55L:T30R:S32A) VH: EVQLVESGGGLVQPGGSLRLSCAASGFTFRWAFMSWVRQAPGKGLEWVSWIGPSGLYTDYADSVKGRFTISRDNSKNTLYLQMNSLRAEDTAVYYCARSQYGRYYSPDYYFDYWGQGTLVTVSS VL: DIQMTQSPSSLSASVGDRVTITCRASQALGFYLNWYQQKPGKAPKLLIYAASSLSSGVPSRFSGSGSGTDFTLTISSLQPEDFATYYCQQGRTPPLTFGQGTKVEIKR |
| – | – | – | – | – | – | – | ~100 nM | D029 LV4 (Rev1:Q27G:P94Y) (bispecific antibody, V domains shown) VH: EVQLVESGGGLVQPGGSLRLSCAASGFTFTWSFMSWVRQAPGKGLEWVSWIGPSGSYTDYADSVKGRFTISRDNSKNTLYLQMNSLRAEDTAVYYCARSQYGRYYSPDYYFDYWGQGTLVTVSS VL: DIQMTQSPSSLSASVGDRVTITCRASGALGFYLNWYQQKPGKAPKLLIYAASSLSSGVPSRFSGSGSGTDFTLTISSLQPEDFATYYCQQGRTYPLTFGQGTKVEIKR |
| 1590 nM | 1.53 nM | 1590 nM | 1.5 nM | 5140 pM | 43 pM | – | – | D029 HV2LV4 (bispecific antibody, V domains shown, also called Rev1-Q27G:P94Y/S55L:S32F) VH: EVQLVESGGGLVQPGGSLRLSCAASGFTFTWFFMSWVRQAPGKGLEWVSWIGPSGLYTDYADSVKGRFTISRDNSKNTLYLQMNSLRAEDTAVYYCARSQYGRYYSPDYYFDYWGQGTLVTVSS VL: DIQMTQSPSSLSASVGDRVTITCRASGALGFYLNWYQQKPGKAPKLLIYAASSLSSGVPSRFSGSGSGTDFTLTISSLQPEDFATYYCQQGRTYPLTFGQGTKVEIKR |
| – | – | – | – | – | – | – | ~100 nM | D029VH T30R:S55L/LV2 (bispecific antibody, V domains shown, also called Rev1:Q27G:P94Y:L96F/S55L:T30R) VH: EVQLVESGGGLVQPGGSLRLSCAASGFTFRWSFMSWVRQAPGKGLEWVSWIGPSGLYTDYADSVKGRFTISRDNSKNTLYLQMNSLRAEDTAVYYCARSQYGRYYSPDYYFDYWGQGTLVTVSS VL: DIQMTQSPSSLSASVGDRVTITCRASGALGFYLNWYQQKPGKAPKLLIYAASSLSSGVPSRFSGSGSGTDFTLTISSLQPEDFATYYCQQGRTYPFTFGQGTKVEIKR |
| – | – | – | – | – | – | – | ~100 nM | D029 VH-S55L:T30R (bispecific antibody, V domains shown) VH: EVQLVESGGGLVQPGGSLRLSCAASGFTFRWSFMSWVRQAPGKGLEWVSWIGPSGLYTDYADSVKGRFTISRDNSKNTLYLQMNSLRAEDTAVYYCARSQYGRYYSPDYYFDYWGQGTLVTVSS VL: DIQMTQSPSSLSASVGDRVTITCRASQDGGNYLNWYQQKPGKAPKLLIYGASTLYSGVPSRFSGSGSGTDFTLTISSLQPEDFATYYCQQGRTPPLTFGQGTKVEIKR |
| – | – | – | – | – | – | – | ~100 nM | D029VH T30R:S55L/LV4 (bispecific antibody, V domains shown, also called Rev1:Q27G:P94Y/S55L:T30R) VH: EVQLVESGGGLVQPGGSLRLSCAASGFTFRWSFMSWVRQAPGKGLEWVSWIGPSGLYTDYADSVKGRFTISRDNSKNTLYLQMNSLRAEDTAVYYCARSQYGRYYSPDYYFDYWGQGTLVTVSS VL: DIQMTQSPSSLSASVGDRVTITCRASGALGFYLNWYQQKPGKAPKLLIYAASSLSSGVPSRFSGSGSGTDFTLTISSLQPEDFATYYCQQGRTYPLTFGQGTKVEIKR |
| – | – | – | – | – | – | – | ~100 nM | D029-HV1LV2 (bispecific antibody, V domains shown, also called Rev1:Q27G:P94Y:L96F/S55L; D029HVILV2 (so in the source)) VH: EVQLVESGGGLVQPGGSLRLSCAASGFTFTWSFMSWVRQAPGKGLEWVSWIGPSGLYTDYADSVKGRFTISRDNSKNTLYLQMNSLRAEDTAVYYCARSQYGRYYSPDYYFDYWGQGTLVTVSS VL: DIQMTQSPSSLSASVGDRVTITCRASGALGFYLNWYQQKPGKAPKLLIYAASSLSSGVPSRFSGSGSGTDFTLTISSLQPEDFATYYCQQGRTYPFTFGQGTKVEIKR |
